Assay results as given in US20230338477A1 (published 2023).

B1: 69326 (antibody, V domains shown)
VH: EVQLVESGGGLVQPGGSLRLSCAVSGFIFSSYEMNWVRQAPGKGLEWVSYISSSGSTIFYADSVKGRFTISRDNAKNSLYLQMNSLRAEDTAVYYCVSGVVLFDVWGQGTMVTVSS
VL: EIVMTQSPATLSVSPGERATLSCRASQSVSSNFAWYQQKPGQAPRLLIYSASSRATGIPVRFSGSGSGTEFTLTISSLQSEDFAVYYCQQYNIWPRTFGQGTKVEIK
notes: Anti-hTfR antibody of the initial screen; only variable domains are tied to it
B2: 69332 (antibody, V domains shown)
VH: QVTLRESGPALVKPSQTLTLTCTFSGFSLNTYGMFVSWIRQPPGKALEWLAHIHWDDDKYYSTSLKTRLTISKDTSKNQVVLTMTNMDPVDTATYYCARGHNNLNYIIHWGQGTLVTVSS
VL: AIQMTQSPSSLSASVGDRVTITCRASQGIRNDLGWYQQKPGKAPKLLIYAASTLQSGVPSRFSGSGSGTDFTLTISSLQPEDFATYYCLQDYNYPFTFGPGTKVDIK
notes: as for B1
B3: 69348 (antibody, V domains shown)
VH: QVQLVESGGGVVQPGRSLRLSCAASGFTFTTYGMHWVRQAPGKGLEWVAVIWYDGSNKYYGDSVKGRFTISRDNSKNTLYLQMNSLRVDDTAVYYCTRTHGYTRSSDGFDYWGQGTLVTVSS
VL: DIQMTQSPSSLSASVGDRVTITCRASQSIRNVLGWFQQKPGKAPQRLIYAASSLQSGVPSRFSGSGSGTEFTLTISSLQPEDFATYYCLQHNFYPLTFGGGTKVEIK
notes: as for B1
B4: 69340 (antibody, V domains shown)
VH: EVQLVESGGGLVQPGRSLRLSCAASGFTFDDKAMHWVRQVPGKGLEWISGISWNSGTIGYADSVKGRFIISRDNAKNSLYLQMNSLRAEDTALYYCAKDGDTSGWYWYGLDVWGQGTTVTVSS
VL: EIVLTQSPATLSLSPGERATLSCRASQSVSSYLAWYQQKPGQAPRLLIHDVSNRATGIPARFSGSGSGTDFTLTISSLEPEDFVVYYCQQRSDWPITFGQGTRLEIK
notes: as for B1
B5: 69331 (antibody, V domains shown)
VH: QVQLVESGGGVVQPGRSLRLSCIASGFTFSVYGIHWVRQAPGKGLEWMAVISHDGNIKHYADSVKGRFTISRDNSKNTLYLQINSLRTEDTAVYYCAKDTWNSLDTFDIWGQGTMVTVSS
VL: DIQLTQSPSSLSASVGDRVTITCWASQGISSYLAWYQQKPGKAPKLLIYAASTLQSGVPSRFSGSGSGTEFTLTISSLQPEDFATYYCQQLNSYPLTFGGGTKVEIK
notes: as for B1

molecular target: T1, human transferrin receptor 1 (hTfR) (human, UniProt P02786 89-760, limits assumed); assay: in vitro binding screen, method not described
T1 construct: also called TFRC; transferrin receptor protein 1
T1 sequence (P02786 89-760 limits assumed): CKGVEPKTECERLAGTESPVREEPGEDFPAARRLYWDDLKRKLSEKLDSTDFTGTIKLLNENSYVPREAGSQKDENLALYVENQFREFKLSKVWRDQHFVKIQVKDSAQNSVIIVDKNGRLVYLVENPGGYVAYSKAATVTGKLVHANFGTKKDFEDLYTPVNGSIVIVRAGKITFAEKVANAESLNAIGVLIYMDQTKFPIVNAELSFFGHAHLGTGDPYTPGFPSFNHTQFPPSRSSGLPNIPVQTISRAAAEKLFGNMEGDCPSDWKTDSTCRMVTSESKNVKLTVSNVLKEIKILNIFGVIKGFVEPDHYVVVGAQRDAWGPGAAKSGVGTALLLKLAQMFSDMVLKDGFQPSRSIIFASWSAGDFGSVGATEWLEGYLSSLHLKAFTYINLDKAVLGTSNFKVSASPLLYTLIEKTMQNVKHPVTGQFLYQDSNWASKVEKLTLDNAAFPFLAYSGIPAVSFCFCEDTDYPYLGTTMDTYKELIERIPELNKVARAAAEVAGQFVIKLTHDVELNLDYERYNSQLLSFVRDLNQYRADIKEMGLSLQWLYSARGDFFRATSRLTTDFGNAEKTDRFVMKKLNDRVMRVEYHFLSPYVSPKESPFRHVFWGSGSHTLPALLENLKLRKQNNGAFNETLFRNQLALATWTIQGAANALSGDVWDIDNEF

Row | Binder | binding result
1 | B1 | binds
2 | B2 | binds
3 | B3 | binds
4 | B4 | binds
5 | B5 | binds
